± gives the standard deviation of the averaged measurements.
B1: library; a variant is named by its letters at N, in order (parent)
chain: AATGTTGTTGATGCAACCATAAAGTGATATTTAATAATTATTTATAATCAGCAACTTAACCACAAAACAACCATATATTGATATNTCACAAAACAACCATAANTTGATATTTTTGTGAATCGAGTATTTCAGCAAAACTACTGCAGTAAGAA

Assays:
[1] = variants of: B1; assay: relative integration efficiency (T-LR orientation) vs wild-type transposon end (log2 (normalized fold change)); transposon end mutated: left end; higher = more efficient transposition; conditions: with VchCAST RNA-guided transposition machinery (E. coli BL21(DE3) host, lacZ target)
Protocol: (§1)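 Pooled, barcoded VchCAST (Tn6677) mini-transposon donor libraries; each variable transposon-end sequence sits in a fixed pDonor mini-transposon context (10-bp barcode and cargo not included). Left- or right-end libraries were co-transformed with pEffector (TniQ-Cascade, TnsABC, lacZ crRNA, T7, 0.1 mM IPTG) into E. coli BL21(DE3) and grown 18 h at 37 C. T-LR and T-RL junction amplicons were sequenced; output/input barcode fold change was normalised to the mean of four wild-type barcodes and log2-transformed. Two biological replicates; zero-count/undetected variants carry floor values (-10 / -15), censored here. Barcode uncoupling by PCR recombination adds noise.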

[2] = variants of: B1; assay: relative integration efficiency (T-RL orientation) vs wild-type transposon end (log2 (normalized fold change)); transposon end mutated: left end; higher = more efficient transposition; conditions: with VchCAST RNA-guided transposition machinery (E. coli BL21(DE3) host, lacZ target)
Protocol: as §1

Variant	relative integration efficiency (log2) [1]	relative integration efficiency (log2) [2]
TA A22T G24T T31C A33C A70C T76A T86G A96C T110A T113A	0.00776 ± 0.18	-0.657 ± 0.25
TA A16C G24T T30A A70C T76A T84A C87A A96C T110A T113A	-0.489 ± 0.47	-0.00649 ± 0.34
TA A16C G24T T32G A33C A70C T76A T86G T104A T110A T113A	-0.474 ± 0.24	-0.791 ± 0.56
CA A16C G24T T30A A96C T112G T113C	-0.699 ± 0.71	-0.628 ± 0.18
TA A22T G24T T31C A33C T76A A77G C87T T104G T113A	-1.13 ± 0.85	-1.41 ± 0.56
TA A16C G24T T30A A70C T76A T84A C87A T104G T113A	0.223 ± 0.78	-0.109 ± 0.46
CA A22T G24T T31C A33C T104G T113A	-0.697 ± 0.046	-0.629 ± 0.23
TA A22T G24T T31C A33C A70C T76A T84A C87A T104G T113A	-0.566 ± 0.36	-0.81 ± 0.5
TA A23G G24T A33T T76A T78A T84A C87A T104A T110A T113A	0.471 ± 0.38	0.117 ± 0.25
TA A22T G24T T31C A33C T76A T78G C87A T104A T110A T113A	-0.444 ± 0.45	-0.395 ± 0.24
TA A23G G24T A33T T76A A77G C87T A102T T111C T113C	-0.439 ± 0.39	-0.836 ± 0.54
TA A16C G24T T32G A33C A70C T76A T84A C87A A102T T111C T113C	-1.61 ± 0.92	-0.84 ± 0.38
TA A23G G24T A33T T76A T78G C87A A96C T112G T113C	0.535 ± 0.16	0.327 ± 0.1
TA A16C G24T T30A A70C T76A T84A C87A T104A T110A T113A	-0.0907 ± 0.0099	0.0016 ± 0.4
TA A16C G24T T30A T76A A77G C87T T104G T113A	-0.204 ± 0.73	-0.483 ± 0.46
TA A23G G24T A33T T76A T78A T84A C87A A96C T112G T113C	-0.309 ± 0.24	0.136 ± 0.2
TA A16C G24T T30A T76A T78A T84A C87A A96C T110A T113A	-0.28 ± 0.67	-0.316 ± 0.43
TA A16C G24T T30A T76A A77G C87T A96C T110A T113A	0.1 ± 1.2	-0.0467 ± 0.48
TA A22T G24T T31C A33C A70C T76A T84A C87A A102T T111C T113C	-0.102 ± 0.33	-0.168 ± 0.35
TA A22T G24T T31C A33C A70C T76A T84A C87A A96C T112G T113C	-0.665 ± 0.33	-0.334 ± 0.36

Variant	relative integration efficiency (log2) [1]	relative integration efficiency (log2) [2]
TA A16C G24T T30A T76A T78A T84A C87A A102T T111C T113C	-0.306 ± 1.3	-0.415 ± 0.32
TA A16C G24T T30A T76A T78G C87A T104G T113A	-0.0106 ± 0.39	-0.0789 ± 0.27
TA A23G G24T A33T A70C T76A T86G A96C T110A T113A	0.0515 ± 0.56	0.0613 ± 0.44
TA A22T G24T T31C A33C T76A A77G C87T A96C T110A T113A	0.345 ± 0.28	-0.753 ± 0.58
TA A16C G24T T32G A33C T76A T78G C87A T104A T110A T113A	-0.325 ± 0.88	-0.13 ± 0.49
TA A22T G24T T31C A33C A70C T76A T86G T104G T113A	-0.49 ± 0.73	-0.861 ± 0.53
TA A16C G24T T32G A33C A70C T76A T84A C87A T104A T110A T113A	-2.03 ± 1.6	-0.844 ± 0.55
TA A16C G24T T30A T76A T78G C87A A96C T110A T113A	0.235 ± 1.1	0.17 ± 0.13
CA A22T G24T T31C A33C A96C T112G T113C	-0.822 ± 0.81	-0.76 ± 0.32
TA A16C G24T T30A T76A T78G C87A A96C T112G T113C	-0.557 ± 0.27	-0.232 ± 0.21
CA	0.637 ± 0.24	0.299 ± 0.068
TA A23G G24T A33T A70C T76A T86G T104A T110A T113A	-0.032 ± 0.14	-0.568 ± 0.3
TA A23G G24T A33T A70C T76A T84A C87A T104A T110A T113A	-0.119 ± 0.32	-0.0493 ± 0.28
TA A22T G24T T31C A33C T76A A77G C87T T104A T110A T113A	0.0775 ± 0.37	-0.819 ± 0.52
TA A16C G24T T32G A33C A70C T76A T84A C87A A96C T112G T113C	-0.915 ± 1.2	-0.234 ± 0.35
TA A16C G24T T30A A70C T76A T86G T104G T113A	-0.388 ± 0.33	-0.652 ± 0.39
TA A22T G24T T31C A33C T76A T78A T84A C87A T104G T113A	-0.19 ± 0.56	-0.579 ± 0.53
TA A23G G24T A33T A70C T76A T84A C87A A96C T112G T113C	0.304 ± 0.89	0.137 ± 0.19
TA A16C G24T T30A A70C T76A T86G T104A T110A T113A	-0.858 ± 0.25	-0.764 ± 0.36
CA A16C G24T T32G A33C T104G T113A	-0.783 ± 0.61	-0.765 ± 0.33

Variant	relative integration efficiency (log2) [1]	relative integration efficiency (log2) [2]
TA A16C G24T T32G A33C A70C T76A T86G A96C T112G T113C	-1.11 ± 0.096	-0.726 ± 0.16
TA A22T G24T T31C A33C T76A T78A T84A C87A T104A T110A T113A	-0.396 ± 0.056	-0.175 ± 0.33
TA A23G G24T A33T T76A T78A T84A C87A T104G T113A	0.315 ± 0.39	-0.265 ± 0.4
TA A23G G24T A33T A70C T76A T84A C87A A96C T110A T113A	0.218 ± 0.46	0.00966 ± 0.38
TA A23G G24T A33T A70C T76A T86G T104G T113A	0.529 ± 0.03	-0.0666 ± 0.38
TA A22T G24T T31C A33C T76A T78G C87A A102T T111C T113C	-0.662 ± 0.16	-0.645 ± 0.14
TA A16C G24T T32G A33C A70C T76A T84A C87A T104G T113A	-1.55 ± 1.7	-0.951 ± 0.57
TA A23G G24T A33T A70C T76A T86G A102T T111C T113C	-0.846 ± 0.11	-0.375 ± 0.19
TA A22T G24T T31C A33C T76A T78G C87A T104G T113A	-0.379 ± 0.48	-0.685 ± 0.35
CA A16C G24T T32G A33C A96C T112G T113C	-1.27 ± 0.78	-0.695 ± 0.12
TA A16C G24T T32G A33C T76A T78G C87A A96C T110A T113A	-0.283 ± 0.56	-0.233 ± 0.26
TA A16C G24T T32G A33C T76A T78G C87A A102T T111C T113C	-0.986 ± 0.79	-0.362 ± 0.18
TA A16C G24T T32G A33C T76A A77G C87T T104A T110A T113A	-0.782 ± 0.82	-1.38 ± 0.49
CA A23G G24T A33T A96C T112G T113C	-0.242 ± 0.57	-0.198 ± 0.26
TA A23G G24T A33T A70C T76A T86G A96C T112G T113C	-0.361 ± 0.74	-0.338 ± 0.051
CA A16C G24T T30A T104G T113A	-0.245 ± 0.15	-0.185 ± 0.23
CA A16C G24T T30A A102T T111C T113C	-0.907 ± 1	-0.887 ± 0.57
TA A16C G24T T32G A33C T76A T78A T84A C87A T104A T110A T113A	-0.781 ± 0.91	-0.706 ± 0.26

Reference: the supplement of paper PMC10201428
